Experiments:
[1] = biological target: T1, human CD47 expressed on CHO-CD47 cells (human, UniProt Q08722 19-323); assay: flow cytometry on CHO-CD47 cells (MFI, FIG. 2)
T1 construct: whole, on cells; also called cellular CD47; full-length CD47
Description: The binding of the anti-CD47 scFvs to the surface of CHO-CD47 cells was determined by flow cytometry, and the data was expressed as mean fluorescence intensity (MFI).

[2] = biological target: T2, human CD47 polypeptide (Met1-Pro139 of human CD47 fused with a Fc region) (human, UniProt Q08722 19-139); assay: single colony ELISA, scFv supernatant on coated CD47 polypeptide
T2 construct: range 1-139; Made in HEK293 cells and purified from the supernatant; also called CD47 protein; not shown: Fc region
Description: Phages were infected into E. coli host cells followed by plating the infected E. coli cells on agar plate. Each colony was picked up and cultured in 2×YT (yeast extract tryptone) medium containing 100 μg/ml ampicillin with vigorous shacking at 37° C. After OD₆₀₀ of the culture was greater than 1, isopropyl β-d-1-thiogalactopyranoside (IPTG) was added to each culture and the final concentration of IPTG was 1 mM. The cultures were incubated at 37° C. overnight, and then centrifuged 4,000×g for 10 minutes. The scFvs were secreted and collected from the supernatant. The collected scFvs were added onto a 96-well plate coated with CD47 polypeptide followed by the analysis of ELISA so as to determining the binding affinity of the selected scFvs and CD47 polypeptide.

[3] = biological target: T1, human CD47 expressed on CHO-CD47 cells; assay: flow cytometry, IgG on CHO-CD47 cells
Description: The anti-CD47 scFvs were respectively expressed in their IgG formats in accordance with the procedure described in Materials and Methods. CHO cells expressing CD47 (CHO-CD47 cells) and wild-type CHO cells (CHO-WT cells) were respectively treated with anti-CD47 IgGs. After washing, the binding of the anti-CD47 IgGs was detected using a polyclonal APC-conjugated anti-human IgG antibody. Relative MFI was measured by flow cytometry. Antibody R23, a reference antibody constructed according to the sequences of ADI29341 disclosed in US20200181259A1, served as a positive control in this study.

[4] = biological target: T2, human CD47 polypeptide (Met1-Pro139 of …); assay: ELISA on coated CD47 polypeptide (FIG. 1)

| Binder | binding result [1] | binding result [2] | EC50 [3] [µg/mL] | binding result [4] |
| --- | --- | --- | --- | --- |
| scFv CD47-22 (scFv, V domains shown, scFv) VL: DIQMTQSPSSLSASVGDRVTITCRASQDVHSWVAWYQQKPGKAPKLLISRATWLASGVPSRFSGSGSGTDFTLTISSLQPEDFATYYCQQSSNFPLTFGQGTKVEIKR VH: EVQLVESGGGLVQPGGSLRLSCAASGFTINDYGIHWVRQAPGKGLEWVAGIGPFWGSTFYADSVKGRFTISADTSKNTAYLQMNSLRAEDTAVYYCARWMWGRWSAMDYWGQGTLVTVSS | binds | binds |  |  |
| scFv CD47-3 (scFv, V domains shown, scFv) VL: DIQMTQSPSSLSASVGDRVTITCRASQDVSNRVAWYQQKPGKAPKLLISRANGLASGVPSRFSGSGSGTDFTLTISSLQPEDFATYYCQQGSHFPITFGQGTKVEIKR VH: EVQLVESGGGLVQPGGSLRLSCAASGFTISNWWIHWVRQAPGKGLEWVAHIGPTVGKTYYADSVKGRFTISADTSKNTAYLQMNSLRAEDTAVYYCARGGFAMDHWGQGTLVTVSS | binds | binds |  |  |
| Antibody R23 (antibody, from another filing, V domains shown) VH: QVQLQESGPGLVKPSETLSLTCTVSGGSIEHYYWSWIRQPPGKGLEWIGYIYYSGSTNYNPSLKSRVTISVDTSKNQFSLKLSSVTAADTAVYYCARGKTGSAAWGQGTLVTVSS VL: DIQMTQSPSSVSASVGDRVTITCRASQGISRWLAWYQQKPGKAPKLLIYAASSLQSGVPSRFSGSGSGTDFTLTISSLQPEDFATYYCQQTVSFPITFGGGTKVEIKR |  |  | 4.18 |  |
| scFv CD47-4 (scFv, V domains shown, scFv) VL: DIQMTQSPSSLSASVGDRVTITCRASQSVDNGVAWYQQKPGKAPKLLIYSATRLYPGVLSRFSGSGSGTDFTLTISSLQPEDFATYYCQQSSTFPLTFGQGTKVEIKR VH: EVQLVESGGGLVQPGGSLRLSCAASGFTINDYWIHWVRQAPGKGLEWVAHIWPTYGGTHYADSVKGRFTISADTSKNTAYLQMNSLRAEDAAVYYCARGGYSLDIWGQGTLVTVSS | binds |  |  | binds |
| scFv CD47-20 (scFv, V domains shown, scFv) VL: DIQMTQSPSSLSASVGDRVTITCRASQDVHNKVAWYQQKPGKAPKLLIYYTSNLYSGVPSRFSGSGSGTDFTLTISSLQPEDFATYYCQQHFTYPLTFGQGTKVEIKR VH: EVQLVESGGGLVQPGGSLRLSCAASGFTISNYYIHWVRQAPGKGLEWVAGIWPSGGSTSYADSVKGRFTISADTSKNTAYLQMNSLRAEDTAVYYCTRGGYAMDYWGQGTLVTVSS | binds | binds |  |  |
| scFv CD47-28 (scFv, V domains shown, scFv) VL: DIQMTQSPSSLSASVGDRVTITCRASQDVHGKVAWYQQKPGKAPKLLIYYARNLYSGVPSRFSGSGSGTDFTLTISSLQPEDFASYYCQQYFNFPLTFGQGTKVEIKR VH: EVQLVESGGGLVQPGGSLRLSCAASGFTITNWWIHWVRQAPGKGLEWVAEINPFGGNTYYADSVKGRFTISADTSKNTAYLQMNSLRAEDTAVYYCTRGGYAMDYWGQGTLVTVSS | binds | binds |  |  |
| scFv CD47-32 (scFv, V domains shown, scFv) VL: DIQMTQSPSSLSASVGDRVTITCRASQDVHYTVAWYQQKPGKAPKLLIYGTNRLYTGVPSRFSGSGSGTDFTLTISSLQPEDFATYYCQQHFNFPITFGQGTKVEIKR VH: EVQLVESGGGLVQPGGSLRLSCAASGFTINNFWIHWVRQAPGKGLEWVANISPFTGDTRYADSVKGRFTISADTSKNTAYLQMNSLRAEDTAVYYCARGGYAMDIWGQGTLVTVSS | binds | binds |  |  |
| scFv CD47-27 (scFv, V domains shown, scFv) VL: DIQMTQSPSSLSASVGDRVTITCRASQDVHNGVAWYQQKPGKAPKLLIFRTSWLLSGVPSRFSGSGSGTDFTLTISSLQPEDFATYYCQQGSSFPFTFGQGTKVEIKR VH: EVQLVESGGGLVQPGGSLRLSCAASGFTINNYWIHWVRQAPGKGLEWVARISPFDGGTYYADSVKGRFTISADTSKNTAYLQMNSLRAEDTAVYYCARGGYAMDLWGQGTLVTVSS | binds | binds |  |  |
| CD47-2 IgG (antibody, V domains shown, IgG made in CHO cells from the scFv; The VL-CL junction was not checked (VL ends in ...EIKR); also called antibody CD47-2) VH: EVQLVESGGGLVQPGGSLRLSCAASGFTISNSFIHWVRQAPGKGLEWVAYIWPWSGSTGYADSVKGRFTISADTSKNTAYLQMNSLRAEDTAVYYCARGGFSMDHWGQGTLVTVSS VL: DIQMTQSPSSLSASVGDRVTITCRASQDVSSKVAWYQQKPGKAPKLLIYGTNRLYPGVPSRFSGSGSGTDFTLTISSLQPEDFATYYCQQSSNYPLTFGQGTKVEIKR |  |  | 2.34 |  |
| scFv CD47-31 (scFv, V domains shown, scFv) VL: DIQMTQSPSSLSASVGDRVTITCRASQDVHSKVAWYQQKPGKAPKLLIYSTNRLYSGVPSRFSGSGSGTDFTLTISSLQPEDFATYYCQQHSNYPVTFGQGTKVEIKR VH: EVQLVESGGGLVQPGGSLRLSCAASGFTISNWWIHWVRQAPGKGLEWVAAINPFNGRTDYADSVKGRFTISADTSKNTAYLQMNSLRAEDTAVYYCTRGGYAMDYWGQGTLVTVSS | binds | binds |  |  |
| CD47-7 IgG (antibody, V domains shown, IgG made in CHO cells; constant domains as for m19; also called antibody CD47-7) VH: EVQLVESGGGLVQPGGSLRLSCAASGFTITNYYIHWVRQAPGKGLEWVASIWPGYGNTGYADSVKGRFTISADTSKNTAYLQMNSLRAEDTAVYYCARGGYSMDFWGQGTLVTVSS VL: DIQMTQSPSSLSASVGDRVTITCRASQDVYTRVAWYQQKPGKAPKLLIYYTRNLYSGVPSRFSGSGSGTDFTLTISSLQPEDFATYYCQQAANYPLTFGQGTKVEIKR |  |  | 2.44 |  |
| scFv CD47-5 (scFv, V domains shown, scFv) VL: DIQMTQSPSSLSASVGDRVTITCRASQDVHNKVAWYQQKPGKAPKLLIYSATRLYPGVPSRFSGSGSGTDFTLTISSLQPEDFATYYCQQHFNYPLTFGQGTKVEIKR VH: EVQLVESGGGLVQPGGSLRLSCAASGFTITNYWIHWVRQAPGKGLEWVAHIWPGVGDTDYADSVKGRFTISADTSKNTAYLQMNSLRAEDTAVYYCARGGFAMDLWGQGTLVTVSS | binds |  |  | binds |
| scFv CD47-6 (scFv, V domains shown, scFv) VL: DIQMTQSPSSLSASVGDRVTITCRASQDVSSRVAWYQQKPGKAPKLLIYYTSNLYSGVPSRFSGSGSGTDFTLTISSLQPEDFATYYCQQHFNYPLTFGQGTKVEIKR VH: EVQLVESGGGLVQPGGSLRLSCAASGFTITNWWIHWVRQAPGKGLEWVATISPYSGDTHYADSVKGRFTISADTSKNTAYLQMNSLRAEDTAVYYCARGGYAMDHWGQGTLVTVSS | binds |  |  | binds |
| scFv CD47-8 (scFv, V domains shown, scFv) VL: DIQMTQSPSSLSASVGDRVTITCRASQDVHYAVAWYQQKPGKAPKLLIYGTNRLYPGVPSRFSGSGSGTDFTLTISSLQPEDFATYYCQQHSNFPLTFGQGTKVEIKR VH: EVQLVESGGGLVQPGGSLRLSCAASGFTINNFYIHWVRQAPGKGLEWVASIWPWSGETGYADSVKGRFTIGADTSKNTAYLQMNSLRAEDTAVYYCARGGFAMDFWGQGTLVTVSS | binds |  |  | binds |
| scFv CD47-14 (scFv, V domains shown, scFv) VL: DIQMTQSPSSLSASVGDRVTITCRASQDVSTKVAWYQQKPGKAPKLLIYFTRNLYSGVPSRFSGSGSGTDFTLTISSLQPEDFATYYCQQHSNYPVTFGQGTKVEIKR VH: EVQLVESGGGLVQPGGSLRLSCAASGFTISNWWIHWVRQAPGKGLEWVAGISPYSGKTDYADSVKGRFTISADTSKNTAYLQMNSLRAEDTAVYYCARGGYAMDLWGQGTLVTVSS | binds |  |  | binds |
| scFv CD47-29 (scFv, V domains shown, scFv) VL: DIQMTQSPSSLSASVGDRVTITCRASQDVHSKVAWYQQKPGKAPKLLIYSTNRLYPGVPSRFSGSGSGTDFTLTISSLQPEDFATYYCQQHFTYPLTFGQGTKVEIKR VH: EVQLVESGGGLVQPGGSLRLSCAASGFTITNWWIHWVRQAPGKGLEWVAGITPYSGDTYYADSVKGRFTISADTSKNTAYLQMNSLRAEDTAVYYCARGGYAIDNWGQGTLVTVSS | binds | binds |  |  |
| scFv CD47-9 (scFv, V domains shown, scFv) VL: DIQMTQSPSSLSASVGDRVTITCRASQDVSNRVAWYQQKPGKAPKLLIYGTNRLYTGVPSRFSGSGSGTDFTLTISSLQPEDFATYYCQQHFNYPITFGQGTKVEIKR VH: EVQLVESGGGLVQPGGSLRLSCAASGFTINSWWIHWVRQAPGKGLEWVAKISPFNGDTHYADSVKGRFTISADTSKNTAYLQMNSLRAEDTAVYYCARGGYAMDIWGQGTLVTVSS | binds |  |  | binds |
